Measurements as given in the nanobody polyreactivity screen of Harvey et al. (2022).

Test: yeast display, Sf9 membrane polyspecificity reagent, FACS + sequencing; frameworks hold sequencing errors
Method in brief: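 Nanobodies came from a synthetic yeast display library in Saccharomyces cerevisiae BJ5465, induced with galactose for 36–48 hours and stained for 1 hour at 4 °C with 10% biotinylated, detergent-solubilized Sf9 membrane reagent. Cells were enriched on streptavidin microbeads and then FACS-sorted, with low and high (top ~1%) gates set on anti-HA fluorescence for expression and streptavidin fluorescence for reagent binding. Each polyreactivity label reflects the gate a clone came from. Genes were amplified by colony PCR, sequenced by MiSeq 2 × 250 and filtered by CDR length.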

Row | Sequence | polyreactivity (PSR sort gate)
1 | QVQLVESGGGLVQAGGSLRLSCAASGGTFWKNAMGWYRQAPGKERELVAAIRSSSGNTYYADSVKGRFTISRDNAKNTVYLQMNSLKPEDTAVYSCARRYYDYGYDYYWGQGTQVTVSS | high polyreactivity
2 | QVQLVESGGGLVQAGGSLRLSCAASGGTFWLYTMGWYRQAPGKERELVAAITKSGGSTYYADSVKGRFTISRDNAKNTVYLQMNSLKPEDTAVYYCAARYSVYRDGYYWGQGTQVTVSS | high polyreactivity
3 | QVQLVESGGGLVQAGGSLRLSCAASGGTFWYYAMGWDRQAPGKERELVAAINWSGDSTYADSVKGRFTISRDNAKNTVYLQMNSLKPEDTAVYYCNADVWYYRMDYWGQGTQVTVSS | low polyreactivity
4 | QVQLVESGGGLVQAGGSLRLSCAASGGTFWYYAMGWYRQAPGKERELVASISRGGSTNYADSVKGRFTISRDNAKNTVYLQMNSLKPEDTAVYYCNAGLRVGPRRYVDYEYDYWGQGTQVTVSS | low polyreactivity
5 | QVQLVESGGGLVQAGGSLRLSCAASGGTFYANAMGWSRQAPGKEREFVASISRSVGSTYYADSVKGRFTISRDNAKNTVYLQMNSLKPEDTAVYYCAARRYSRPRYTYYSWGQGTQVTVSS | high polyreactivity
6 | QVQLVESGGGLVQAGGSLRLSCAASGGTFYAYAMGWYRQAPGKERELVAAISRSGSTYYADSVKGRFTISRDNAKNTVYLQMNSLKPEDTAVYYCAARRARRDPVGYVYAKYGYWGQGTQVTVSS | high polyreactivity
7 | QVQLVESGGGLVQAGGSLRLSCAASGGTFYAYAMGWYRQAPGKERELVAAITNSGGSTYYADSVKGRFTISRDNAKNTVYLQMNSLKPEDTAVYYCARRRSYRDNYWGQGTQVTVSS | high polyreactivity
8 | QVQLVESGGGLVQAGGSLRLSCAASGGTFYNYAMGWYRQAPGKERELVAAITYSGGITYYADSVKGRFTISRDNAKNTVYLQMNSLKPEDTAVYYCNTDGINSSVVVVDDYWMDYWGQGTQVTVSS | low polyreactivity
9 | QVQLVESGGGLVQAGGSLRLSCAASGGTFYTNVMGGYTQAPGKERELVAAITRSGGSTHYADSVKGRFTISRDNAKNTFYLQMNSLKPEDTEVYYCALGSPYYDGMDYWGQGTQVTVSS | low polyreactivity
10 | QVQLVESGGGLVQAGGSLRLSCAASGGTFYVKDMAWYRQAPWNERDLVATITYSGTSTYYADSVKGRFTISRDNAKNTVYLQMKSLKPEDTAVYYCATDVLLYFEPVNLDYWGQGTQVTVSS | low polyreactivity
11 | QVQLVESGGGLVQAGGSLRLSCAASGGTFYVNAMGWYRQAPGKERELVAAISYRGGRTYYADSVKGRFTISRDNAKNTVYVQMNSVKPEDTAVYYCAAEYSYDHSTGYDYWGQGTQVTVSS | low polyreactivity
12 | QVQLVESGGGLVQAGGSLRLSCAASGGTFYVYAMGWYRQAPGKERELVAAISTSDGITYYADSVKGRFTLSRDNAKNTVYLQMNSLKPEDTAVYYCAAEFFSSFTYAYDYWGQGTQVTVSS | high polyreactivity
13 | QVQLVESGGGLVQAGGSLRLSCAASGGTFYYNTMGWYRQAPGQERELVAAIRSTGGSTYDADSVKGRFTISRDNAKNTVYLQMNSLKPEDTAVYYCAKKVYTRRRGSDYWGQGTQVTVSS | high polyreactivity
14 | QVQLVESGGGLVQAGGSLRLSCAASGGTFYYYAMGWYRQAPGKERELVAAITKNGGSTYYADSVKGRFTISRDNAKNTVYLQMNSLKPEDTAVYYCAASRFGRMDYWGQGTQVTVSS | high polyreactivity
15 | QVQLVESGGGLVQAGGSLRLSCAASGGTIENYAMGWYRQAPGKERELVAAISSGGSTNYADSVKGRFTISRDNAKNTVYLQMNSLKPEDTAVYYCATRGIWKKVPYYYWGQGTQVTVSS | low polyreactivity
16 | QVQLVESGGGLVQAGGSLRLSCAASGGTIYLNAMGWYRQAPRKERELVAGITWGGGRTYYADSVKGRFTISRDNAKNTVYLQMNSLKPEDTAVYYCASGAWRGPYSGYYYWGQGTQVTVSS | low polyreactivity
17 | QVQLVESGGGLVQAGGSLRLSCAASGGTLEVYAMGWYRQAPGKEREFVAAISWSGGRTYYADSVKGRFTISRDNAKNTVYLQMNSLKPEDTAVYYCATRDRAGYYYWGQGTQVTVSS | high polyreactivity
18 | QVQLVESGGGLVQAGGSLRLSCAASGGTLFQNAMGWYRQAPGKERELVATIRVSGGITYYADSVKGRFTISRDNAKNTVYLQMNSLKPEDTAVYYCAKDSADSRAVGDVLTFDYWGQGTQVTVSS | low polyreactivity
19 | QVQLVESGGGLVQAGGSLRLSCAASGGTLGLNAMGRTRQAPGKEREFVAAINRSGGSTRYADSVKGRFTISRDNAKNTVYLQMISLKPEDTAVYYCNAASWTFQTTPKYDYWGQGTQVTVSS | high polyreactivity
20 | QVQLVESGGGLVQAGGSLRLSCAASGGTLRGYAMGWYRQAPGKERELVASITYTSGSTYYADSVKGRFTISRDNAKNTVYLQINSLKPEDTAVYYCAAVARTVPSYSYNYWGQGTKVTVSS | high polyreactivity
21 | QVQLVESGGGLVQAGGSLRLSCAASGGTLSYYAMGWYRQAPGKERELVAGISRRGGSTYYADSVKGRFTISRDNAKNTVYLQMNSLNPEDTAVYYCAADSNRHYYYWGQGTQVTVSS | high polyreactivity
22 | QVQLVESGGGLVQAGGSLRLSCAASGGTLYIYAMGWDRQAPGKERELVAAIRGRGGSTYADSVKGRCTISRDNAKNTVYLQMNSLKPEDTAVYYCAASGIRYWLPYDYWGQGTQVTVSS | high polyreactivity

Row | Sequence | polyreactivity (PSR sort gate)
23 | QVQLVESGGGLVQAGGSLRLSCAASGGTRFTNAMGWYRQAPGKEREMVAAISWRGGRTYYADSVKGRFTISRDNAKNTVYLQMNSQKPEDTAVYYCAAASAAGYDYWGQGTQVTVSS | low polyreactivity
24 | QVQLVESGGGLVQAGGSLRLSCAASGGTYVGYSMGWYRQAPGKERELDATITRRGGNTYYADSVKGRFTISRDNAKNTVYLQMNSLKPEDTAVYYCAARKKGSRVGYDYWGQGTQVTVSS | high polyreactivity
25 | QVQLVESGGGLVQAGGSLRLSCAASGGYGMGWYRQAPGKERELVAAISYSGGSTYYADSVKGRFTISRDNAKNTVYLQMNSLKPEDTAVYYCNVLRGSLNGWWPGYDYWGQGTQVTVSS | low polyreactivity
26 | QVQLVESGGGLVQAGGSLRLSCAASGHIFDHYAMGWYRQAPGKERELVAAISTSGTSTYYADSVKGRFTISRDNAKNTVYLQMNSLKPEDTAVYYCNAGGGHVGDVRYPYRYWRYNYWGQGTQVTVSS | low polyreactivity
27 | QVQLVESGGGLVQAGGSLRLSCAASGHIFFYYTMGWYRQAPGKERELVAGIPIGGSTNYADSVKGRFTISRDNAKNTVYLQMNSLKPVDTAVYYFNVVKYVYIYSFWEYYYWGQGTQVTVSS | low polyreactivity
28 | QVQLVESGGGLVQAGGSLRLSCAASGHIFPTNAMGWYRQAPGKERELVAVISESVGSTYYADSVKGRFTISRDNAKNTVYLQMNSLKPEDTAVYYCAVRSRTPRAYYYWGQGTQVTVSS | low polyreactivity
29 | QVQLVESGGGLVQAGGSLRLSCAASGHIFYAYAMASYRQAPGKERELVASITYRGVSTYYADSVKARFTISRDNAKNTVYLQMHSLKPEDTAVYYCAAGRSRYLWFGRDFDYWGQGTQVTVSS | low polyreactivity
30 | QVQLVESGGGLVQAGGSLRLSCAASGHNFFYYTMVWYRPAPGKERELVAGITIGGSTNYADSVKGRFTISRDNAKNNVYLVMNSLKPEDTAVYYCNVDKYVYIYSYWEYYYWGQGTQVTVSS | low polyreactivity
31 | QVQLVESGGGLVQAGGSLRLSCAASGHTFAYNAMGWYRQAPGKEREFVAAITWSTDNTYYADSVKGRFTISRDNAKNTVYLQMNSLKPEDTAVYYCAKDAAESYRYGYWGQGTQVTVSS | low polyreactivity
32 | QVQLVESGGGLVQAGGSLRLSCAASGHTFYYKALGWYTQAPGKEREFVATITESGTSTYYADSVKGRCTLSRDNAKNTVYLQMKSLKPEDTAGYYCAAQYWYVGGIALYDYWGQGTQVTVSS | low polyreactivity
33 | QVQLVESGGGLVQAGGSLRLSCAASGIFAYYVMGWYRQAPGKERELVADISRGGSTNYADSVKGRFTISRDNAKNTVYLQMISLKPEDSAVYYCNARSYYPWEGYDYWGQGTQVTVSS | low polyreactivity
34 | QVQLVESGGGLVQAGGSLRLSCAASGIFDYYAMGWYRQAPGKERELVAAINSSGGSTYYADSVKGRFTISRDNAKNTVYLQMNSLKPEDTAVYYCAAGRYAYLFNYWGQGTQVTVSS | high polyreactivity
35 | QVQLVESGGGLVQAGGSLRLSCAASGIFFIYSMGWYRQAPGKERELVADIDSGGPTYYADSVKGRFTISRDNAKNTVYLQMNSLKPEDTAVYYCAVDYSNVDLYSLLFYESDYWGQGTQVTVSS | low polyreactivity
36 | QVQLVESGGGLVQAGGSLRLSCAASGIFFLYMGWYRQAPGKERELVAAISDSGGTTYYADSVKGRFTISRDNAKNTVYLQMNSLKPEDTAVYYCAAEIENLNWFYWDYLEYDYWGQGTQVTVSS | low polyreactivity
37 | QVQLVESGGGLVQAGGSLRLSCAASGIFGWNAMGWYRQAPGKEREFVAGITYSGTRTYYADSVKGRFTISRDNAKNTVYLQMNSLKPEDPAVYYCAATTGHRNYRSYYWGQGTQVTVSS | high polyreactivity
38 | QVQLVESGGGLVQAGGSLRLSCAASGIFGYNARGWYRQAPGKERELVAAITSSGTSTYYADSVKGRFTISRDNAKNTVYLQMNSLKPEDTAVYYCAALHSGTWTGYGYWGQGTQVTVSS | low polyreactivity
39 | QVQLVESGGGLVQAGGSLRLSCAASGIFRRYAMGWYRQAPGKERELVATITSGGSTNYADSVKGRFTISRDNAKNTVYLQMNSLKPEDTAVYYCNALYGARRYTRWYTGMDYWGQGTQVTVSS | high polyreactivity
40 | QVQLVESGGGLVQAGGSLRLSCAASGIFTRYAMGWYRQAPGKERELVAAISRGGGSTYYADSVKGLFTISRDNAKNTCYLQMNSLKPEDTAVYYCNTYKRPRSPGPKFYYWGEGTQVTVSS | high polyreactivity
41 | QVQLVESGGGLVQAGGSLRLSCAASGIFVDNAMGWYRQAPGKERELVAAITSSTDSTYYADSVKGRFAISRDNAKNTVYLQMNSLKPEDTAVDYCAVARPGGFYFLVHYGYGYWGQGTQVTVSS | low polyreactivity
42 | QVQLVESGGGLVQAGGSLRLSCAASGIICDYNAMGWYRQAPGKERELVAAITSTDNTNYADSVKGRFTISRDNAKNTVYLQMNSLKPEDTAVYSCNTDYWLSVVYAMDYWGQGTQVTVSS | low polyreactivity
43 | QVQLVESGGGLVQAGGSLRLSCAASGIIFANYTMGWYRKAPGKERELVAAISWSGDSTYYADSVKGRFTISRDNAKNTVYLQMNSLKPEDTAVYYCATVNIGYRVWMNYWGQGTQVTVSS | low polyreactivity
